Square brackets hold non-standard residues; d marks the D form. Peptide text beside a SMILES is read from it. * marks the point of attachment. 4Abz = Nc1ccc(C(=O)O)cc1; NHOH = ON*
Experiments:
[1] = biological target: T1, Bovine plasma alpha-2-macroglobulin (UniProt Q7SIH1)
T1 sequence: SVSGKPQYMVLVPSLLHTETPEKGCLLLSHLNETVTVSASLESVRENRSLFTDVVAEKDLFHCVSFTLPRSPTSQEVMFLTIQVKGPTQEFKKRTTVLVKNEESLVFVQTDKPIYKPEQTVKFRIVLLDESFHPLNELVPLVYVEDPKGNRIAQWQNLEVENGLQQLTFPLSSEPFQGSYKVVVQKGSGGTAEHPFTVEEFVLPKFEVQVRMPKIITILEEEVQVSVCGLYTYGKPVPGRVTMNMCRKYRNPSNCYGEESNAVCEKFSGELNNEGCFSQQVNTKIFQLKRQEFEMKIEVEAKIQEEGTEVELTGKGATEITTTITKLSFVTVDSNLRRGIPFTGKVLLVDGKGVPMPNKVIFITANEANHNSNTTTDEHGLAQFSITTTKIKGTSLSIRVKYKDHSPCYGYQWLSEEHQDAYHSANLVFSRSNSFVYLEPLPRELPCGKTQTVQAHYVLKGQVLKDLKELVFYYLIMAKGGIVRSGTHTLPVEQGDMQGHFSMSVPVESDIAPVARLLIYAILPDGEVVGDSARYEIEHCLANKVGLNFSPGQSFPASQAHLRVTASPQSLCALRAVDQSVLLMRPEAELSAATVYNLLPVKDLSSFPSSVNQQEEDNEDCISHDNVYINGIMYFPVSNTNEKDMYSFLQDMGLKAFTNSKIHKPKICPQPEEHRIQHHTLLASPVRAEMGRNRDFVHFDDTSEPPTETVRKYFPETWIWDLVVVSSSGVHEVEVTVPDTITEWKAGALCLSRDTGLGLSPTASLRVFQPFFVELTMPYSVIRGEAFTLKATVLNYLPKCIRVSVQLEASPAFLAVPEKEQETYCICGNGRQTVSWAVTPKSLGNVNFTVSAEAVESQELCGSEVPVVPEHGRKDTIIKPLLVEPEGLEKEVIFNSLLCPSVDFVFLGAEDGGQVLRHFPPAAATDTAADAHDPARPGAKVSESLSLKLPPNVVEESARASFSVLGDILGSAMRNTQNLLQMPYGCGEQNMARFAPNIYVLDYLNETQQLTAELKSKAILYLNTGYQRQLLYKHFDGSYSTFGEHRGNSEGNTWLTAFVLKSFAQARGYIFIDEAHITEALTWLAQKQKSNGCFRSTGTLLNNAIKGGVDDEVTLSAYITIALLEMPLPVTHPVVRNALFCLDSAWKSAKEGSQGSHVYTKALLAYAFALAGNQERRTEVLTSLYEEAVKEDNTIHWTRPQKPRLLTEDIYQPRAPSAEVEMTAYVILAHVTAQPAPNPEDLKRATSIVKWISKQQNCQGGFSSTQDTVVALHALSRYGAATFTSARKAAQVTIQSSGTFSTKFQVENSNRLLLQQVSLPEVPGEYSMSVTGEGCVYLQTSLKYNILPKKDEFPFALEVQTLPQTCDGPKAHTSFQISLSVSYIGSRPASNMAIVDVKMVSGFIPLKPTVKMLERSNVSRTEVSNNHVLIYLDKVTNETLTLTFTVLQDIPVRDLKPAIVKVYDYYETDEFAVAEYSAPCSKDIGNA

hADAM-19 = biological target: T2, hADAM-19 (Homo sapiens, UniProt Q9H013); experiment: Inhibition of α2-M cleavage by hADAM-19 (SDS-PAGE, silver staining); assay type: biochemical; details: 1 mM inhibitor
T2 construct: made in house
T2 sequence (Q9H013 26-701 isoform Q9H013-2): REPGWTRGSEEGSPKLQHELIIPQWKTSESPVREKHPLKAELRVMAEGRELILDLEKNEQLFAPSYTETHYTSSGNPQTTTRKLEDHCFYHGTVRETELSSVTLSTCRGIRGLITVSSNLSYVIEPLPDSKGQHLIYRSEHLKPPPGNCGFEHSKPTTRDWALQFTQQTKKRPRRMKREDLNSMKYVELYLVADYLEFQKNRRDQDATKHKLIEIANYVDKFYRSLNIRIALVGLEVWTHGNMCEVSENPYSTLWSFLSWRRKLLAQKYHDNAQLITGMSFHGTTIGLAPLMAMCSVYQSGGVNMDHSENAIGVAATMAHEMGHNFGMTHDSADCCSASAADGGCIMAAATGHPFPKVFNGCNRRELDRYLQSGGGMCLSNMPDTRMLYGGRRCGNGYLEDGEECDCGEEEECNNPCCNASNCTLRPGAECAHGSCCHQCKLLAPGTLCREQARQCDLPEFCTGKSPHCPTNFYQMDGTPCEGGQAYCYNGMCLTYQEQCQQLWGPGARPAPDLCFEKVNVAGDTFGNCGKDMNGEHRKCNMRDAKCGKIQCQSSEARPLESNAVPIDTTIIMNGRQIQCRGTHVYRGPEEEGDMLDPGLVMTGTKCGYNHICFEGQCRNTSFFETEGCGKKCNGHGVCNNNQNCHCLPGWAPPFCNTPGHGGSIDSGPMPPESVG
Procedure: 20 mM EDTA, 20 rmiM EGTA, 10 mM HgCl2, 1 miM TIMP-1,-2 (TIMP: hADAM-19 molar ratio was 100:1) and three commercial (CALBIOCHEM) small molecule human MMP inhibitors were used to inhibit α2-M cleavage by hADAM-19. […] Briefly, different concentrations of those inhibitors were mixed with 7.5 μl of hADAM-19 (50 μg/ml) in 22.9 μl of 1× HEPES buffer (50 mM HEPES, pH 7.5, 0.2 M NaCl, 10 mM CaCl2, 25 μM ZnCl, and 0.05%Brij-35) and incubated at room temperature (24° C.) for 2-hr, then 7.1 μl of substrate α2-M (0.2 unit/ml) were added and incubated at 37° C. for 20-hr. The reactions were stopped by adding 4× sample bufer and boiled immediately for 5 minutes. After SDS-PAGE, the protein bands were visualized by silver staining.

MMP-1 = MMP-1 (Homo sapiens, UniProt P03956); details: commercial (CALBIOCHEM) inhibitor data; read-out: IC50 against MMP-1; cited from earlier work
Chain of MMP-1 (P03956 100-469): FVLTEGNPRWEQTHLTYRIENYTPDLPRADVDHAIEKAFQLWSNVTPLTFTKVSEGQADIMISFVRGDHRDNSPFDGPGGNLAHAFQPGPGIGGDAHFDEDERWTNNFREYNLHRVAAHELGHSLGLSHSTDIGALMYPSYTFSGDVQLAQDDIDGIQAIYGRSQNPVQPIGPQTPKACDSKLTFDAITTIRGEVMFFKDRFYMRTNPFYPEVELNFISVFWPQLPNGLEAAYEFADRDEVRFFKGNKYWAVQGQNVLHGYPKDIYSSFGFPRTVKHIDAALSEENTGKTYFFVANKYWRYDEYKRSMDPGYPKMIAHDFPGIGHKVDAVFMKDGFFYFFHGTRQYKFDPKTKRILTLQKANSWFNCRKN

MMP-8 = MMP-8 (Homo sapiens, UniProt P22894); details: commercial (CALBIOCHEM) inhibitor data; read-out: IC50 against MMP-8; cited from earlier work
Chain of MMP-8 (P22894 101-467): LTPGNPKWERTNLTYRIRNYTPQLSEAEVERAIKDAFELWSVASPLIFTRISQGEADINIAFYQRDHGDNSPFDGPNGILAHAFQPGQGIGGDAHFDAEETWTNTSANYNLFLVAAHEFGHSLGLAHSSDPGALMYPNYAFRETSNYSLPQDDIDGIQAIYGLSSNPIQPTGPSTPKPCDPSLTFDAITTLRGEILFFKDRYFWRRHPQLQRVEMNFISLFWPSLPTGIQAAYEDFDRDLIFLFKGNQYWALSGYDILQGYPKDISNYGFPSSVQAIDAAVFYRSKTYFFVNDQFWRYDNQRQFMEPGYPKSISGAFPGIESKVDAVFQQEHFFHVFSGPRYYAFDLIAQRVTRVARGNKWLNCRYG

MMP-9 = MMP-9 (Homo sapiens, UniProt P14780); details: commercial (CALBIOCHEM) inhibitor data; read-out: IC50 against MMP-9; cited from earlier work
Chain of MMP-9 (P14780 94-707): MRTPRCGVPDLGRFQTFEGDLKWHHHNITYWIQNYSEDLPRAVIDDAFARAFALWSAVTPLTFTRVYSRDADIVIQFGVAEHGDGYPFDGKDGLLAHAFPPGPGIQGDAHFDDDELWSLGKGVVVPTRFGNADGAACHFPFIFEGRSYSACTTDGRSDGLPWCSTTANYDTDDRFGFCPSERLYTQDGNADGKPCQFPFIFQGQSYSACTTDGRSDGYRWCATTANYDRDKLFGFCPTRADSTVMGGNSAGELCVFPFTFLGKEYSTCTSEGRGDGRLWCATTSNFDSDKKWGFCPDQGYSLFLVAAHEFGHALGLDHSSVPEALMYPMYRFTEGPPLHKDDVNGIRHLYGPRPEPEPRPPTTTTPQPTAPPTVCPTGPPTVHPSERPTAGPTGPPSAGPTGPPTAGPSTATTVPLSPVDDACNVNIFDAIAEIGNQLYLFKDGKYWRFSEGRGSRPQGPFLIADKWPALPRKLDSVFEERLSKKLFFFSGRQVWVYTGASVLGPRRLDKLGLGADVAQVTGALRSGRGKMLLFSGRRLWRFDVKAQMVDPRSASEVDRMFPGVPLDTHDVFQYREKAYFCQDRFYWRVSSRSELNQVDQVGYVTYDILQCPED

MMP-3 = MMP-3 (Homo sapiens, UniProt P08254); details: commercial (CALBIOCHEM) inhibitor data; read-out: IC50 against MMP-3; cited from earlier work
Chain of MMP-3 (P08254 100-477): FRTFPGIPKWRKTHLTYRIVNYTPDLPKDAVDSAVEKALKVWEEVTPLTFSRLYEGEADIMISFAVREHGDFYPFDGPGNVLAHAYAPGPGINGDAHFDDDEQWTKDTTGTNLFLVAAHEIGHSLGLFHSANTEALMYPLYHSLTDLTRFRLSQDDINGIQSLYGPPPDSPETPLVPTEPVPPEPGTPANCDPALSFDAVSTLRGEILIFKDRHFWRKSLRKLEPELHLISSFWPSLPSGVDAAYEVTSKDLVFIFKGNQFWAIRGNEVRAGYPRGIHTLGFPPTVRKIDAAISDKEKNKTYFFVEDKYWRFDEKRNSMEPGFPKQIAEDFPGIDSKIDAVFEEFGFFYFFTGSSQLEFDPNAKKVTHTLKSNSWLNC

[2] = biological target: T3, Bovine plasma alpha-2-macroglobulin, Q7SIH1
T3 chain: T1 sequence

[3] = biological target: Mca fluorogenic peptide substrate M-1985
[4] = biological target: Mca fluorogenic peptide substrate M-2105
[5] = biological target: Mca fluorogenic peptide substrate M-2110
[6] = biological target: Mca fluorogenic peptide substrate M-2225
[7] = biological target: Mca fluorogenic peptide substrate M-2255
[8] = biological target: rat tail tendon type I gelatin

## Trypsin
[1]
  cleavage of α2-M (SDS-PAGE, silver staining): Trypsin was used as a positive proteinase control to cleave α2-M and it generated a 72 kDa major band and a 35 kDa minor band

## CC(C)C[C@@H](NC(=O)[C@@H]1CCCN1C(=O)CNC(=O)c1ccc(N)cc1)C(=O)N[C@H](C)C(=O)NO [MMP inhibitor I] (H-[4Abz]GP[dL][dA]-{NHOH})
hADAM-19
  blockage of hADAM-19 digestion of α2-M: did not block
MMP-1
  IC50: 1 µM
MMP-8
  IC50: 1 µM
MMP-9
  IC50: 30 µM
MMP-3
  IC50: 150 µM

B1: Flag-tagged hADAM-19 protein (residues 26-701 of SEQ ID NO: 9) (protein)
chain: T2 sequence (Q9H013 26-701 isoform Q9H013-2)
[2]
  cleavage of α2-M (SDS-PAGE, silver staining): Human hADAM-19 cleaved α2-M to yield new bands of 105 kDa and a 72 kDa
  proteolysis of alpha-2 macroglobulin: a polypeptide corresponding to this gene displayed metal-dependant proteolysis of alpha-2 macroglobulin
[3]
  fluorogenic peptide substrate cleavage: Neither were the 5 different synthetic fluorogenic peptide substrates listed in the Materials and Methods
[4]
  fluorogenic peptide substrate cleavage: Neither were the 5 different synthetic fluorogenic peptide substrates listed in the Materials and Methods
[5]
  fluorogenic peptide substrate cleavage: Neither were the 5 different synthetic fluorogenic peptide substrates listed in the Materials and Methods
[6]
  fluorogenic peptide substrate cleavage: Neither were the 5 different synthetic fluorogenic peptide substrates listed in the Materials and Methods
[7]
  fluorogenic peptide substrate cleavage: Neither were the 5 different synthetic fluorogenic peptide substrates listed in the Materials and Methods
Bovine casein
  substrate digestion: rat tail tendon type I gelatin and bovine casein, were not dissolved by hADAM-19
[8]
  substrate digestion: rat tail tendon type I gelatin and bovine casein, were not dissolved by hADAM-19

— patent US20020173640A1, “ADAM polynucleotides, polypeptides, and antibodies” (Human Genome Sciences, Inc., priority 1999, published 2002)
